From US20220119825A1, “SCALABLE PEPTIDE-GPCR INT[…] SYSTEMS” (THE TRUSTEES OF COLUMBIA UNIVERSITY IN THE CITY OF NEW YORK, priority 2019, published 2022)
Where “and” joins values, the source holds several entries; their conditions need not be identical. Equal values may be shown once. Read-outs that look alike come from different tables or passages of the source.

Experiments:
Assay in all cases: cell-based or functional assay
[1] = target: T1, Cn.Ste2, Ste2-like mating GPCR of Candida tenuis (Candida tenuis)
T1 chain: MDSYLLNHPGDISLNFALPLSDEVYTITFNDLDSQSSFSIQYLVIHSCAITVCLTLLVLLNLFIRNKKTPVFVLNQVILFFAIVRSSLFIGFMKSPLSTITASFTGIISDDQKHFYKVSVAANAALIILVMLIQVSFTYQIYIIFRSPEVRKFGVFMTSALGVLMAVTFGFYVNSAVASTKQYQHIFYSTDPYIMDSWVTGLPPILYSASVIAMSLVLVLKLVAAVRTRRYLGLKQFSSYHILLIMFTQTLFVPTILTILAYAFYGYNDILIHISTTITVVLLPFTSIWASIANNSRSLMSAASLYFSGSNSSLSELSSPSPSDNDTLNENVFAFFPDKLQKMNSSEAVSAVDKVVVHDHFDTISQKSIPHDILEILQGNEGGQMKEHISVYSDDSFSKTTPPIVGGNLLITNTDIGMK

[2] = target: T2, Gc.Ste2, Ste2-like mating GPCR of Geotrichum candidum (Geotrichum candidum)
T2 chain: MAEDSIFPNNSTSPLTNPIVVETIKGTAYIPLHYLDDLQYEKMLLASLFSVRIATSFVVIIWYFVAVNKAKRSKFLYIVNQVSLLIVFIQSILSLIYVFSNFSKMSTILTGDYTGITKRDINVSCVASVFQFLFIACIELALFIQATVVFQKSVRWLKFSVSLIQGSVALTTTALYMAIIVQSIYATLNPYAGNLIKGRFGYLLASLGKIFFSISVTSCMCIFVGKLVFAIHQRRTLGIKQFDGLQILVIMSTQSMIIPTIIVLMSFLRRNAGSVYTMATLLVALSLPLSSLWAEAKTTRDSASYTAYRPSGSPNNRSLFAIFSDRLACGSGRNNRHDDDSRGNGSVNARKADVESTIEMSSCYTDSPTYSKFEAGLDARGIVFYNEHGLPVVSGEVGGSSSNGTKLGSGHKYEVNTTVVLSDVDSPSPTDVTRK

[3] = target: T3, Kp.Ste2, Ste2-like mating GPCR of Komagataella (Pichia) pastoris (Komagataella (Pichia) pastoris)
T3 chain: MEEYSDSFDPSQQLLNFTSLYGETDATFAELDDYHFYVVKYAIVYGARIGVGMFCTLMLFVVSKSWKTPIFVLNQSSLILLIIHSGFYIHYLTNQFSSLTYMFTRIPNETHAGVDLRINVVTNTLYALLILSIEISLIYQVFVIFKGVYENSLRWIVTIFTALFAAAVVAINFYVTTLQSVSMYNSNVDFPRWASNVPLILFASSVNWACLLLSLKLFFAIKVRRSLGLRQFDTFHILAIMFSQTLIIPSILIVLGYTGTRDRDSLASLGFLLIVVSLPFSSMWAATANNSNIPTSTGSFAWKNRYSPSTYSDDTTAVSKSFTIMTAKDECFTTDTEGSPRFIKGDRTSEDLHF

[4] = target: T4, Cp.Ste2, Ste2-like mating GPCR of Candida parapsilosis (Candida parapsilosis)
T4 chain: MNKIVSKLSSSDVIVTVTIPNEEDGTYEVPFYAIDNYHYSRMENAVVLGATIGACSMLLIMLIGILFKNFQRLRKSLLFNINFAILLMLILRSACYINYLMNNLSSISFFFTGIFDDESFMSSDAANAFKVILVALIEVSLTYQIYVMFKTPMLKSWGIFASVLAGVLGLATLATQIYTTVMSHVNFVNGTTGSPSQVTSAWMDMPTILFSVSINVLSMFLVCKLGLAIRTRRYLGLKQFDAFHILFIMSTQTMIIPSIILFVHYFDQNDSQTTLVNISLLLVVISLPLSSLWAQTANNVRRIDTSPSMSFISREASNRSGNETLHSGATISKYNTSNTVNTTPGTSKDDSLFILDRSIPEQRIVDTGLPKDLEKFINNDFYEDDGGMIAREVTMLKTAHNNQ

[5] = target: T5, Sc.Ste2, Saccharomyces cerevisiae mating GPCR Ste2 (Saccharomyces cerevisiae, UniProt D6VTK4 1-431)
T5 sequence: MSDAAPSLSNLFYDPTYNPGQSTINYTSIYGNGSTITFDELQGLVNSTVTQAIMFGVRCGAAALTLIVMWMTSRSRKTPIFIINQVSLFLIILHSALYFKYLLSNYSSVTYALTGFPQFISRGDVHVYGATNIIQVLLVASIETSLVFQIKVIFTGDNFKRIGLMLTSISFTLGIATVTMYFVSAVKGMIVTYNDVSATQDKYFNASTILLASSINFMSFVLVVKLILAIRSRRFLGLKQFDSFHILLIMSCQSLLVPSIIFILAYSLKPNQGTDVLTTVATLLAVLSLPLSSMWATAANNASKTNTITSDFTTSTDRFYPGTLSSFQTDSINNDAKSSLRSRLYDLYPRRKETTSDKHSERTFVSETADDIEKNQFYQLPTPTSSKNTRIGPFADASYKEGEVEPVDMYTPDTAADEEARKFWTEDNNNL

[6] = target: T5, Sc.Ste2, Saccharomyces cerevisiae …; remark: listed apart in the source
[7] = target: T6, Kl.Ste2, Ste2-like mating GPCR of Kluyveromyces lactis (Kluyveromyces lactis)
T6 chain: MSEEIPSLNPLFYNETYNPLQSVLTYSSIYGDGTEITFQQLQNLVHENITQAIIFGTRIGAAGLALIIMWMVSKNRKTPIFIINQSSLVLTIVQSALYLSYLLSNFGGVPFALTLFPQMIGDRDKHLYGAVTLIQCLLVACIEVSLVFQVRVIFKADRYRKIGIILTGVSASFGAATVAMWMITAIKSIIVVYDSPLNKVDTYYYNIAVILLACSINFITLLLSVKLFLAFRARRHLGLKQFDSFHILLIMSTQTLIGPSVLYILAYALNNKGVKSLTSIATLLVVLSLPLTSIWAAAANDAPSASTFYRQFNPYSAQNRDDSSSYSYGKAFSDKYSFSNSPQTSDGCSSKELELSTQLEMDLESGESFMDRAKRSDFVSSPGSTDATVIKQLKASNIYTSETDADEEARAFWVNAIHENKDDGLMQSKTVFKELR

[8] = target: T7, Ct.Ste2, Ste2-like mating GPCR of Candida tropicalis (Candida tropicalis)
T7 chain: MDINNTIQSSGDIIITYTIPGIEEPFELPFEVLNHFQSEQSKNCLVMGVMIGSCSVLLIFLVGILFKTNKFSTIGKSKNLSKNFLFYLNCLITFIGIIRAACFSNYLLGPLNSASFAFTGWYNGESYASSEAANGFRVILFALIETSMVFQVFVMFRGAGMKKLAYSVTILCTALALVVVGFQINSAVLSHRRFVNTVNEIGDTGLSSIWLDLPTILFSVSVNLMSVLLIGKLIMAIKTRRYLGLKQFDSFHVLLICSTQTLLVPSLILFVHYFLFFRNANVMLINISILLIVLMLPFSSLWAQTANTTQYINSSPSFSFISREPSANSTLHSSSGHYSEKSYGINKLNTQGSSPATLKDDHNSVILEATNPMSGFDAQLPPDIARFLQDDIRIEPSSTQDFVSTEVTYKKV

B1: Cn peptide ligand #1 FSWNYRLKWQPIS (peptide)
peptide: FSWNYRLKWQPIS
Bttm (FUS1p-RFP reporter) [1]: 29.7 fluorescence/A600 (not printed)
EC50 (FUS1p-RFP reporter) [1]: -7.4 log10 M (not printed)
Fold Change (FUS1p-RFP reporter) [1]: 5.1 fold
Span (FUS1p-RFP reporter) [1]: 122 fluorescence/A600 (not printed)
Top (FUS1p-RFP reporter) [1]: 152 fluorescence/A600 (not printed)

B2: Gc peptide ligand #1 GDWGWFWYVPRPGDPAM (peptide)
peptide: GDWGWFWYVPRPGDPAM
Bttm (FUS1p-RFP reporter) [2]: 22.9 fluorescence/A600 (not printed)
EC50 (FUS1p-RFP reporter) [2]: -6.9 log10 M (not printed)
Fold Change (FUS1p-RFP reporter) [2]: 8.2 fold
Span (FUS1p-RFP reporter) [2]: 164 fluorescence/A600 (not printed)
Top (FUS1p-RFP reporter) [2]: 187 fluorescence/A600 (not printed)

B3: Kp peptide ligand #1 (Table 3: …) (peptide)
peptide: FRWRNNEKNQPFG
Bttm (FUS1p-RFP reporter) [3]: 44.8 fluorescence/A600 (not printed)
EC50 (FUS1p-RFP reporter) [3]: -8.2 log10 M (not printed)
Fold Change (FUS1p-RFP reporter) [3]: 6 fold
Span (FUS1p-RFP reporter) [3]: 224 fluorescence/A600 (not printed)
Top (FUS1p-RFP reporter) [3]: 269 fluorescence/A600 (not printed)

B4: Cp peptide ligand #1 KPHWTTYGYYEPQ (peptide)
peptide: KPHWTTYGYYEPQ
Bttm (FUS1p-RFP reporter) [4]: 36.2 fluorescence/A600 (not printed)
EC50 (FUS1p-RFP reporter) [4]: -8.5 log10 M (not printed)
Fold Change (FUS1p-RFP reporter) [4]: 7 fold
Span (FUS1p-RFP reporter) [4]: 218 fluorescence/A600 (not printed)
Top (FUS1p-RFP reporter) [4]: 254 fluorescence/A600 (not printed)

B5: Sc peptide ligand #1 WHWLQLKPGQPMY (S. cerevisiae alpha-factor) (peptide)
peptide: WHWLQLKPGQPMY
EC50 (FUS1p-RFP reporter) [5]: 1.25 nM and ~1 nM
Bttm (FUS1p-RFP reporter) [6]: 36.2 fluorescence/A600 (not printed)
EC50 (FUS1p-RFP reporter) [6]: -8.9 log10 M (not printed)
Fold Change (FUS1p-RFP reporter) [6]: 7 fold
Span (FUS1p-RFP reporter) [6]: 217 fluorescence/A600 (not printed)
Top (FUS1p-RFP reporter) [6]: 253 fluorescence/A600 (not printed)

B6: Kl peptide ligand #1 WSWITLRPGQPIF (peptide)
peptide: WSWITLRPGQPIF
Bttm (FUS1p-RFP reporter) [7]: 37.2 fluorescence/A600 (not printed)
EC50 (FUS1p-RFP reporter) [7]: -7.3 log10 M (not printed)
Fold Change (FUS1p-RFP reporter) [7]: 6 fold
Span (FUS1p-RFP reporter) [7]: 186 fluorescence/A600 (not printed)
Top (FUS1p-RFP reporter) [7]: 223 fluorescence/A600 (not printed)

B7: Ct peptide ligand #1 KFKFRLTRYGWFSPN (peptide)
peptide: KFKFRLTRYGWFSPN
Bttm (FUS1p-RFP reporter) [8]: 32 fluorescence/A600 (not printed)
EC50 (FUS1p-RFP reporter) [8]: -8.2 log10 M (not printed)
Fold Change (FUS1p-RFP reporter) [8]: 5.2 fold
Span (FUS1p-RFP reporter) [8]: 135 fluorescence/A600 (not printed)
Top (FUS1p-RFP reporter) [8]: 167 fluorescence/A600 (not printed)
